These are literature values, as cited in article PMC12043044.

In the series the target is Ubiquitin (UniProt P0CG48).

Chain of Sla1 SH3-3 (P32790 350-418): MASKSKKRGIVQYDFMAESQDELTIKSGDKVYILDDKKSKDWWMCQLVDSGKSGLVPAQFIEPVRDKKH

Consider Sla1 SH3-3 (from UniProt P32790), for which the Kd is 40 µM.
